Experiments:
[1] = target: full-length ClpC fused to the T25 fragment of B. pertussis adenylate cyclase (B. subtilis) (UniProt P37571); assay: two-hybrid; modified bacterial two-hybrid: MecA-T18 and ClpC-T25 in E. coli DHM1 that holds a plasmid with Gp53 under the L-arabinose-inducible araB promoter; β-gal activity with and without L-arabinose
[2] = target: full-length ClpC fused to the T25 fragment of B. pertussis adenylate cyclase (UniProt P37571); assay: bacterial two-hybrid interaction assay (β-gal readout); details: E. coli Δcya strain DHM1, Gp53 fused to T18, ClpC fused to T25, n = 3; for percent of parent: parent: 100; for response: parent: est. 21000, read off a plot
[3] = target: C-terminal FLAG-tagged ClpC (B. subtilis) (UniProt P37571)

| Substance | percent of parent [2] [%] | response [2] [Miller Units] | other results |
| --- | --- | --- | --- |
| Gp53 expressed from pSCBAD-Gp53 under the L-arabinose-inducible araB promoter (natural protein) | – | – | fold reduction of the β-gal activity of MecA-ClpC on induction of Gp53 [1]: 3 fold |
| Gp53 (WT) fused to a fragment of B. pertussis adenylate cyclase for the bacterial two-hybrid assay R94E | 37 | 7700 | – |
| N-terminal His6-tagged Gp53 of phage SPO1 (natural protein) | – | – | β-casein (3 μM) left intact after 90 min of in vitro degradation by ClpCP with MecA, with Gp53 against without Gp53 [3]: 10 fold |
| Gp53 (WT) fused to a fragment of B. pertussis adenylate cyclase for the bacterial two-hybrid assay K101E | – | 23000 | – |
| Gp53 (WT) fused to a fragment of B. pertussis adenylate cyclase for the bacterial two-hybrid assay R94A | – | 21000 | – |
| Gp53 (WT) fused to a fragment of B. pertussis adenylate cyclase for the bacterial two-hybrid assay V87A | 44 | 9300 | – |
| Gp53 (WT) fused to a fragment of B. pertussis adenylate cyclase for the bacterial two-hybrid assay L83A | – | 20000 | – |
| Gp53 (WT) fused to a fragment of B. pertussis adenylate cyclase for the bacterial two-hybrid assay L95A | 48 | 10000 | – |
| Gp53 (WT) fused to a fragment of B. pertussis adenylate cyclase for the bacterial two-hybrid assay K101A | – | 22000 | – |

Reference: article PMC6873191
